Data as given in patent US20250353912A1, “COMPOSITIONS AND METHODS COMPRISING ANTIBODIES THAT BIND TO COVALENT PEPTIDE CONJUGATES” (New York University, priority 2022, published 2025).
Positions count from the first letter of the chain named. Each block holds one molecule with its values, some of them ahead of it.

Biological target: osimertinib-EGFR/HLA-A*02 (Homo sapiens, UniProt P00533)
Assay: Yeast-display binding of affinity matured clones
Conditions: for binding to EGFR/HLA-A*02 (no drug-conjugation) / binding to osimertinib-EGFR/HLA-A*02: binding titration, FIG. 39; for inhibition of antigen binding by free drug: osimertinib-EGFR/HLA-A*02 10 nM, free osimertinib 1 μM, FIG. 40
Description: FIG. 40. Binding of EO_Q16 and EO_Q17 to osimertinib-EGFR/HLA-A*02 (10 nM) in the absence and presence of free osimertinib (1 μM), showing that antigen binding of these antibodies is not inhibited by the presence of free drug.
The binding partners described above in this Example show higher binding signals to osimertinib-EGFR/HLA-A*02, as tested in the yeast display format and as shown in FIGS. 39 and 40.

binding to osimertinib-EGFR/HLA-A*02: high affinity
inhibition of antigen binding by free drug: not inhibited
B1: EO_Q16: affinity matured clone of OEA2-5, osimertinib-EGFR on HLA-A*02 (antibody, V domains shown)
VH: EVQLVESGGGLVQPGGSLRLSCAASGFTISSSYIHWVRQAPGKGLEWVAYISPSYGSTSYADSVKGRFTISADTSKNTAYLQMNSLRAEDTAVYYCAREYVTMSIDYWGQGTLVTVSS
VL: DIQMTQSPSSLSASVGDRVTITCRASQSVSSAVAWYQQKPGKAPKLLIYSASSLYSGVPSRFSGSRSGTDFTLTISSLQPEDFATYYCQQYSDWPITFGQGTKVEIKRTV
binding to EGFR/HLA-A*02 (no drug-conjugation): not to the equivalent antigen without drug conjugation

binding to osimertinib-EGFR/HLA-A*02: high affinity
inhibition of antigen binding by free drug: not inhibited
B2: EO_Q17: affinity matured clone of OEA2-5, osimertinib-EGFR on HLA-A*02 (antibody, V domains shown)
VH: B1 VH with Y100L, T102E, S104T, I105P
VL: B1 VL with D93S
binding to EGFR/HLA-A*02 (no drug-conjugation): not to the equivalent antigen without drug conjugation
